According to the DeepSol protein solubility set:

Assay: soluble on expression in E. coli; label from the status in PepcDB or PDB records

Soluble on expression in E. coli, soluble:
HGSSHHHHHHSSENLYFQGHMWNSRKVGVLGGGQLGRMLVESANRLNIQVNVLDADNSPAKQISAHDGHVTGSFKEREAVRQLAKTCDVVTAEIEHVDTYALEEVASEVKIEPSWQAIRTIQNKFNQKEHLRKYGIPMAEHRELVENTPAELAKVGEQLGYPLMLKSKTMAYDGRGNFRVNSQDDIPEALEALKDRPLYAEKWAYFKMELAVIVVKTKDEVLSYPTVETVQEDSICKLVYAPARNVSDAINQKAQELARKAVAAFDGKGVFGVEMFLLEDDSIMLCEIASRIHNSGHYTIEGCALSQFDAHLRAILDLPIPAQSLEIRQPSIMLNIIGGAAPDTHLQAAECALSIPNASIHLYSKGAAKPGRKMGHITVTAPTMHEAETHIQPLIDVVDRIRA
MELARPRSNFQSDLDFCPDCGSVLPLPGIQDTVICSRCGFSIDVRDCEGKVVKTSVVFNKLGATIPLSVDEGPELQGPVIDRRCPRCGHEGMAYHTRQMRSADEGQTVFYTCINCKFQEKEDS
MTHSPSFLQHALSSSDTRAEWPLPGGLAARWLAPGCVELNGDARGADSVLLSCGVHGNETAPIEVVDGMLTDIAAGQLALNCRLLVMFANLDAIRQGVRYGNYDMNRLFNGAHARHPELPESVRAAELETLAAEFFAGARARKLHYDLHTAIRGSVFEKFAIYPFLHDGRTHKREQLAWLQRCGIEAVLLHTQPANTFSYFTSQYCEADAFTLELGKARPFGQNDLSRFSGIDGALRGLLSNPQANVPDLDEDKLPLFRAKYDLVKHSEAFKLNLADSVENFTLLPDGMLIAEDGAVRYQATGGEERILFPNPAVKPGLRAGIVVEPARLPSRLEHHHHHH
DPTAQSLQDISDEQVLVLFEQMLVDMNLNEEKQQPLREKDIVIKREMVSQYLHTSKAGMNQKESSRSAMMYIQELRSGLRDMHLLSCLESLRVSLTSHPVSWVQTFGAEGLASLLDILKRLHDEKEETSGNYDSRNQHEIIRCLKAFMNNKFGIKTMLETEEGILLLVRAMDPAVPNMMIDAAKLLSALCILPQPEDMNERVLEAMTERAEMDEVERFQPLLDGLKSGTSIALKVGCLQLINALITPAEELDFRVHIRSELMRLGLHQVLQELREIENEDMKVQLCVFDEQGDEDFFDLKGRLDDIRMEMDDFGEVFQIILNTVKDSKAEPHFLSILQHLLLVRNDYEARPQYYKLIEECVSQIVLHKNGTDPDFKCRHLQID
MKNIAAQMVNFDREQMRRIANIDNQDMTISVWVFPDTDISDVSRELIAAIKQGYLTVKAAGVWAGGIETPSVETPSEGSKFFGFDMDNEFISGFDVGAWGVLL
MDRKIVQLIHNFSGTEKLKAAVFSHDEQCFFDFVSFDELNSKLTGFLLFDSLEKLFKLVETIQQKRSWLYVDELWLINTATENQQLNEVSVWLVKKELAQVGVLTQLDTSLVKLLMASKNTDSALYNTYIKPVELQQFTQTPAPDNVNAEQSHLTLESTTDLNNSQLANTPALWEVEQTTQELLPTMDFSKFIDELDQITKNFSDLELEPLSFNEGFDEWNQE
MHKINKWSVIYNINSTVTRALRDLMQGILQKI
SNFLEIDIFNPQTVGVGRARFTTYEVRMRTNLPIFKLKESCVRRRYSDFEWLKNELERDSKIVVPPLPGKALKRQLPFRGDEGIFEESFIEERRQGLEQFINKIAGHPLAQNERCLHMFLQEEAIDRNYVPGK
MGRSRRTLPEELLLLALDPTTGTTAQPQSLDLGLAGAQLVELALAGRIAPDGDRIAVVAPRPTGDPTLDCALELLRRRGAPVRAVNWIGGPRLGLRQTYLSHLERCGMVHAVEGQMCGVLPTTRYQATDTAISREIKARLDSAIRTGVPPDPRTAALAALAHAVGLGKHLYPGNEGRSSRSRLRDLIRHDPMGGLVAHAVMDVQNGAAAQPRRSPAPAGRQAPGPGARPAPEPARGVPAQPRHGSMARAAVHLEHHHHHH
AKIDNAVLPEGSLVLVTGANGFVASHVVEQLLEHGYKVRGTARSASKLANLQKRWDAKYPGRFETAVVEDMLKQGAYDEVIKGAAGVAHIASVVSFSNKYDEVVTPAIGGTLNALRAAAATPSVKRFVLTSSTVSALIPKPNVEGIYLDEKSWNLESIDKAKTLPESDPQKSLWVYAASKTEAELAAWKFMDENKPHFTLNAVLPNYTIGTIFDPETQSGSTSGWMMSLFNGEVSPALALMPPQYYVSAVDIGLLHLGCLVLPQIERRRVYGTAGTFDWNTVLATFRKLYPSKTFPADFPDQGQDLSKFDTAPSLEILKSLGRPGWRSIEESIKDLVGSETA
EIGEPDVTDATLGSVYSEIISPVKDCILTVAKAVSFNPGGKDNTDAVEVLTELNTKVERAALNQPILTTKTER
MEGGKLQSTFVFEEIGRRLKDIGPEVVKKVNAVFEWHITKGGNIGAKWTIDLKSGSGKVYQGPAKGAADTTIILSDEDFMEVVLGKLDPQKAFFSGRLKARGNIMLSQKLQMILKDYAKL

Soluble on expression in E. coli, not soluble:
MSPQDTCCPPDSWPALKVDYKPKGKLEDIGKGLKAYVVGNGPRAVIALNDVFGIESGHSKEICDAIADKGFTVVFPDVFRGKPLQVSDMSKLFDELPGWAKQFDYEPALRKDVVEVILPYLHDKLGFKSNDQIALAGFCWGAFMLFHLAGDTKLPGGPFACGVSFHPSVQIEGVFQRDPLQLIDRATCPQLLLPSAGEPDYMKEEGDAIKKLRAKPFGASCGVKTFPSMQHGWVNRGDRNDPQVVKEAQEALQLAVDFMMRHTKPKA
MSSRAVSLFSKCGSRISQTRGKAHFTFQPSTTLPAGLENLEKTKMNLMQSVNEAMRIAMETDDSAVLFGEDVAFGGVFRCSLDLQKKFGKDRVFNTPLCEQGIAGFGIGVAAAGATAIAEIQFGDYIFPAYDQLVNEAAKFRYRSGNQFDCGKLTVRTTWGAVGHGALYHSQSPEANFTHTPGLKLVVPRGPVQAKGLLLSCIRDPNPCIFFEPKILYRLASEDVPTGDYTIPLGQAETVRSGKDLTLVAWGTQVHVALEAAQLAKEKLNADVEVIDLQTIQPWDEDHVVESVQKTGRLIVTHEAPISSGFGAEIASTVQKRCFLNLESPIDRVAGFDTPFPHVHEPFYLPTVHRVFDAIKKSVNY
MVREAKNLRARTKKISLHICRKHAPQSEDFRCVFLRQQVIDRDIEAMAKPYDFYIVWKLSYNHVFTIHPRHTILELPPVYPDTALVPFFIMRFSFFDHMISCEYIFHRKLFVCLHRKNKQKQKSNM
MNHMKKNILFDGLRSVARIGETAFVAARAGIKYATEKPSNAKLMRETFESLGSTYIKLGQFIASTPSLFPREYVEEFQGCLDQTPTLPFSYIQEVLAEEFEGRDLNQIFASIDETPLASASIAQVHAARLTTGEDVVIKVQKPGVETILYTDLNVVHWATKMLEKAIPKVKFASLSEIVEEIKIRMVREVDFIEEAQNLDDFVEYLKITNNQAATAPKVYHQFSTRRILTMERLYGVSLTDFDIVKKFAKDPSQVLITAMNTWFGSLMLCKSFHADLHAGNLMLLEDGRIGFIDFGIVGQLNPQVWTACLAFMDALQKTDYTAMAENMLKMGMTKTQIDTQVLAQDLERLFSGVLLADPQEILASKPSDLNDIMLDMVAVGERHGIKFPRDFALLFKQMLYFDRFMRVLAPYTDIYADQRLKMVQTIEPQSLLKH
MMVEVRFFGPIKEENFFIKANDLKELRAILQEKEGLKEWLGVCAIALNDHLIDNLNTPLKDGDVISLLPPVCGG
MLRQLTFLFPTKFHRGKKLRTQRYRGLQSKEKKKLSLLTTKFSDEAWGDNHKNKVVYRAQDRFHNPLFIVLMVVKKKLDHKKLIDNNSHYHVCI
MGSDKIHHHHHHMHMKLDDITYMNPWWEGKEDYHVKQWEKQKVHWEPKWIREISLKPFSLNFVLGPRQVGKTTGIKLLIQKILEENPPESVLYLNLEILPTYRELLDIIREFQELKKEEGIKTGYIFLDEASSLEGWWRGVKPLIDSGLLENDVITVTGSSSLRVRRDIELFPGRRGGGKTLEVMPLSFPEYARVMGLKKHKLEGSKVIKLFEKYIQTGGFPGSINGFPMEDLLGAYIGEFVRFGKSLEIAKEIFSALIRSAPSATSFRALAEMTSGYSYKVVQDYIEFFRDLYILGMAYLKQGNQVMYRREKKFFFRDPLLAKLFSLWSGTEIGKDALYEWIVQEHVFRKFGEIHYFRNSYEIDIIASDMKIEVKAGKAHRKYPRGVKVLEKEDVPFFLIELYNEDC
MFQLLAVCPMGLEAVVAKEIQELGYDTQVENGRIFFEGDESAIVRCNLWLRTADRIKIVMGRFNATTFDELFEQTKSLPWETVIDKEGNFPVQGRSVKSTLYSVPDCQAITKKAIVERLKHAHQEKGWLSETGAKYPVEVAILKDNVLLTIDTAGSGLNKRGYRIAQGEAPIKETLAASLIRLANWNGNTPLIDPFCGSGTIAIEACLIAQNIAPGFNRDFVSEQWNMMPPNIYDKFRDEADQLADYDKDIQVYASDIDPEMIEIAKRNAEEVGLGDIIQFNVKDVNTLSIDTDKPVALVGNPPYGERIGDREEVEEMYRYIGTLLKQHPHLSAYILTSNKEFEYLVNRKATKRRKLFNGYIECTYYQYWGKKQSNKN
MKILITGGSGLVGRQLTKSLQAQNIEVTWLSRTKGVKDGIKSFLWDYKKGYIEEEAFDGVTHIVHLAGAGVFDKRWTKSYKKEIFDSRILTTKLLVEKALKLNGLEAFISGSAIGIYGNSMNSVPLTETALYGNDYLAQVTKEWEAATVPLENSSIRLAIIRTGIVLSEHGGALPAMINPIKAYIGSPLASGEQIISWIHIDDLCRIFSKAITDDAIKGTYNGVAPEPVTNKVLTQTAAAILHKPLVMPNVPSFALNILLGKEKAASVVEGIAVSAEKISATGFTFTYPYIKKALSDLLLEHHHHHH
MGSDKIHHHHHHMLQVTDVSLRFGDRKLFEDVNIKFTEGNCYGLIGANGAGKSTFLKILSGELDSQTGHVSLGKNERLAVLKQDHYAYEDERVLDVVIKGHERLYEVMKEKDEIYMKPDFSDEDGIRAAELEGEFAEMNGWNAEADAANLLSGLGIDPTLHDKKMAELENNQKIKVLLAQSLFGEPDVLLLDEPTNGLDIPAISWLEDFLINFDNTVIVVSHDRHFLNNVCTHIADLDFGKIKVYVGNYDFWYQSSQLAQKMAQEQNKKKEEKMKELQDFIARFSANASKSKQATSRKKQLEKIELDDIQPSSRRYPFVKFTPEREIGNDLLIVQNLSKTIDGEKVLDNVSFTMNPNDKAILIGDSEIAKTTLLKILAGEMEPDEGSFKWGVTTSLSYFPKDNSEFFEGVNMNLVDWLRQYAPEDEQTETFLRGFLGRMLFSGEEVKKKASVLSGGEKVRCMLSKMMLSSANVLLLDEPTNHLDLESITAVNDGLKSFKGSIIFTSYDFEFINTIANRVIDLNKQGGVSKEIPYEEYLQEIGVLK
MMCSTVISQLGFECHPIGKTLRIISPFTYCDDGEHVGAFIREVNGRYLVSDRCDALMNMEARGISLTKKRLDEIRQLLLKEGAELNARGEIIAWATEKDVGAITSNIIRAGILASTLSLDWYQPVQAEKFESMVIDYLYHTELRDALSLRENVYGLSGHQITVPVTIKTDIPKYVFTSSVKHGGSWNSAYSLLGKLIDLKASSEEYNNRFVVIDSEAIGDQMQQLSLLFHESSQVLPFSKRETWVKRLAA
MTAHPPRPELQIDIVSDVVCPWCIVGFRQLDQALAATGVLARLRWHPFELNPQMGPEGQNLREHIMEKYGSTPEQSAEARARLTAIGAELGFTFNFTDDSRIVNTFAAHQLLDWAEGQGRQHPLKQALFAAYFTDGRDVSDLSVLLDAVEAAGLDREAAQTALTSGAHQAPVREKQKFWAQHGISGVPSMVFGGKYLLTGAQGADTYAQVIQRCLAEAA
